Experimental data taken from publication PMC11765556, “Cytosine Methylation Changes the Preferred Cis-Regulatory Configuration of Arabidopsis WUSCHEL-Related Homeobox 14”.

T1: AtWOX14 (homodimer on DNA) (Arabidopsis thaliana, UniProt Q9LM84 1-211)
T1 sequence: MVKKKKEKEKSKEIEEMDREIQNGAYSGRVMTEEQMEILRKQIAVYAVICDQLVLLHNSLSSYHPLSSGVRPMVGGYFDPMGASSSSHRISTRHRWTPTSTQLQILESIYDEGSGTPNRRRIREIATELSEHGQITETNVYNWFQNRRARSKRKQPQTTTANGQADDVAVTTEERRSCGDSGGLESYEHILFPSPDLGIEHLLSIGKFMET

T2: AtWOX14 (monomer) (Arabidopsis thaliana, UniProt Q9LM84 1-211)
T2 sequence: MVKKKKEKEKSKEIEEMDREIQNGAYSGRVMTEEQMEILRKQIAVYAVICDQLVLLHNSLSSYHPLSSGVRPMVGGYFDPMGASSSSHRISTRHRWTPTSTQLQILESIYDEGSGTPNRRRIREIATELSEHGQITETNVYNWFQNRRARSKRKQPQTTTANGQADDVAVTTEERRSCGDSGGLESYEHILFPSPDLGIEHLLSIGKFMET


How the values were obtained:
[1] = biological target: T1, AtWOX14 (homodimer on DNA); assay: EMSA; 50-200 nM WOX14; dimeric shift at high protein; EMSA: 10 mM Tris (pH not stated), 50 mM NaCl, 1 mM MgCl2, 4% glycerol, 0.5 mM EDTA, 25 C 40 min, 30 ng probe in 20 uL; 6% native PAGE, 0.5x TBE, 4 C; details: protein: recombinant; tags: N-terminal His (pETG20A-His); chain copies: 2
AtWOX14 (monomer) = biological target: T2, AtWOX14 (monomer); assay: EMSA; 50-200 nM WOX14; monomeric shift; EMSA: 10 mM Tris (pH not stated), 50 mM NaCl, 1 mM MgCl2, 4% glycerol, 0.5 mM EDTA, 25 C 40 min, 30 ng probe in 20 uL; 6% native PAGE, 0.5x TBE, 4 C; details: protein: recombinant; tags: N-terminal His (pETG20A-His)
[2] = biological target: T1, AtWOX14 (homodimer on DNA); assay: EMSA; 25-200 nM WOX14; dimeric shift; EMSA: 10 mM Tris (pH not stated), 50 mM NaCl, 1 mM MgCl2, 4% glycerol, 0.5 mM EDTA, 25 C 40 min, 30 ng probe in 20 uL; 6% native PAGE, 0.5x TBE, 4 C; details: protein: recombinant; tags: N-terminal His (pETG20A-His); chain copies: 2

Binder | binding result [1] | binding result (AtWOX14 (monomer)) | binding result [2]
ER1 (dsDNA) DNA 1: ATGCTAGCTCCATCTGTGATTGACAATCAATGGCGGTGACGTACT DNA 2: AGTACGTCACCGCCATTGATTGTCAATCACAGATGGAGCTAGCAT | binds | binds | 
M1 (dsDNA) DNA 1: ATGCTAGCTCCATCTGTATTGATTGTTTATGGCGGTGACGTACT DNA 2: AGTACGTCACCGCCATAAACAATCAATACAGATGGAGCTAGCAT |  | binds | 
ER0-AT1G15640 (dsDNA) DNA 1: AATAAGATGTACCCAATGATTGCAATGATGAGCCCAATGAGTGC DNA 2: GCACTCATTGGGCTCATCATTGCAATCATTGGGTACATCTTATT |  |  | binds
ER0 (dsDNA) DNA 1: ATGCTAGCTCCATCTGTGATTGCAATCAATGGCGGTGACGTACT DNA 2: AGTACGTCACCGCCATTGATTGCAATCACAGATGGAGCTAGCAT | binds | binds | 
